Experimental data taken from IntAct's records for PubMed 19850040.

B1: Post-transcriptional regulator MTA (Human herpesvirus 8), Q2HR75 (parent)
chain: MVQAMIDMDIMKGILEDSVSSSEFDESRDDETDAPTLEDEQLSEPAEPPADERIRGTQSAQGIPPPLGRIPKKSQGRSQLRSEIQFCSPLSRPRSPSPVNRYGKKIKFGTAGQNTRPPPEKRPRRRPRDRLQYGRTTRGGQCRAAPKRATRRPQVNCQRQDDDVRQGVSDAVKKLRLPASMIIDGESPRFDDSIIPRHHGACFNVFIPAPPSHVPEVFTDRDITALIRAGGKDDELINKKISAKKIDHLHRQMLSFVTSRHNQAYWVSCRRETAAAGGLQTLGAFVEEQMTWAQTVVRHGGWFDEKDIDIILDTAIFVCNAFVTRFRLLHLSCVFDKQSELALIKQVAYLVAMGNRLVEACNLLGEVKLNFRGGLLLAFVLTIPGMQSRRSISARGQELFRTLLEYYRPGDVMGLLNVIVMEHHSLCRNSECAAATRAAMGSAKFNKGLFFYPLS

Variants of: B1
Conditions: with thoc4_human ALYREF

Q: Which “effect of a mutation on the interaction” value does the source give for K121M here?
A: The value was “disrupting interaction”.

Q: For R151D, which “effect of a mutation on the interaction” value is on record?
A: The value was “disrupting interaction”.

Q: With R148Q as the variant, how does the “effect of a mutation on the interaction” value read?
A: Its value is “disrupting interaction”.

Q: With R128S as the variant, how does the “effect of a mutation on the interaction” value read?
A: The value was “disrupting interaction”.

Q: With K147E as the variant, how does the “effect of a mutation on the interaction” value read?
A: Its value is “disrupting interaction”.

Q: For R125G, which “effect of a mutation on the interaction” value is on record?
A: Its value is “disrupting interaction”.

Q: R143D was tested. Which “effect of a mutation on the interaction” value did it give?
A: The value was “disrupting interaction”.

Q: For R124Q, which “effect of a mutation on the interaction” value is on record?
A: Its value is “disrupting interaction”.

Q: With R130G as the variant, how does the “effect of a mutation on the interaction” value read?
A: The value was “disrupting interaction”.

Q: R126E was tested. Which “effect of a mutation on the interaction” value did it give?
A: Its value is “disrupting interaction”.

Q: Which “effect of a mutation on the interaction” value does the source give for R152G here?
A: The value was “disrupting interaction”.

Q: R122S was tested. Which “effect of a mutation on the interaction” value did it give?
A: The value was “disrupting interaction”.

Variants of: B1
Conditions: with thoc4_human ALYREF
Remark: another data set of the same source

Q: With R101S as the variant, how does the “effect of a mutation on the interaction” value read?
A: The value was “disrupting interaction”.

Q: How did the “effect of a mutation on the interaction” value turn out when K105N was run?
A: The value was “disrupting interaction”.

Q: For K107E, which “effect of a mutation on the interaction” value is on record?
A: The value was “disrupting interaction”.

Q: For K104N, which “effect of a mutation on the interaction” value is on record?
A: Its value is “disrupting interaction”.
